Columns and labels:
[1] = molecular target: HuR WT (human, UniProt Q15717 1-326); assay: ITC; n=0.7; ITC: 50 mM sodium phosphate pH 7.0, 200 mM NaCl, 2 mM beta-mercaptoethanol, 298 K; NMR: 20 mM sodium phosphate pH 7.0, 200 mM NaCl, 5 mM DTT, 1 mM EDTA, 298 K; settings: protein: recombinant; tags: untagged (His6-MBP cleaved)
[2] = molecular target: HuR F287A/F289A (human, UniProt Q15717 1-326, F287A;F289A); assay: as above; settings: protein: recombinant; tags: untagged (tag cleaved)
[3] = molecular target: HuR F247A/Y249A (human, UniProt Q15717 1-326, F247A;Y249A); assay: ITC; n=0.8; ITC: 50 mM sodium phosphate pH 7.0, 200 mM NaCl, 2 mM beta-mercaptoethanol, 298 K; NMR: 20 mM sodium phosphate pH 7.0, 200 mM NaCl, 5 mM DTT, 1 mM EDTA, 298 K; settings: protein: recombinant; tags: untagged (tag cleaved)
HuR F247A/Y249A, sequence (Q15717 whole entry F247A/Y249A): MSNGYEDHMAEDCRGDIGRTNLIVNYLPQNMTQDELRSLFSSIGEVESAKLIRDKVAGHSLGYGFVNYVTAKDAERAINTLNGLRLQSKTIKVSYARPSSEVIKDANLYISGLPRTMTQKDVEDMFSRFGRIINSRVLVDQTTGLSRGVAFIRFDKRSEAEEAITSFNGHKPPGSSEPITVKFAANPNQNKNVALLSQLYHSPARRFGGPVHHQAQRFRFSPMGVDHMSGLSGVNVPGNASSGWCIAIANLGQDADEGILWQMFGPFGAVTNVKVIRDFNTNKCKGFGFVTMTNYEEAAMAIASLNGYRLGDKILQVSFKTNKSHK

[4] = molecular target: HuR W261E (human, UniProt Q15717 1-326, W261E); assay: ITC; n=0.9; ITC: 50 mM sodium phosphate pH 7.0, 200 mM NaCl, 2 mM beta-mercaptoethanol, 298 K; NMR: 20 mM sodium phosphate pH 7.0, 200 mM NaCl, 5 mM DTT, 1 mM EDTA, 298 K; settings: protein: recombinant; tags: untagged (tag cleaved)
HuR W261E, sequence (Q15717 whole entry W261E): as the sequence (Q15717 whole entry F247A/Y249A) above, with A247F, A249Y, W261E counted along it

[5] = molecular target: HuR GGS (human, UniProt Q15717 1-185+=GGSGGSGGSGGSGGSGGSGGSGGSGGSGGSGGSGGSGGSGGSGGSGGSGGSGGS+240-326, internal_change); assay: as above; settings: protein: recombinant; tags: pETM11 His6, cleaved
HuR GGS, sequence (Q15717 other isoform, or with tags, fused parts or gaps): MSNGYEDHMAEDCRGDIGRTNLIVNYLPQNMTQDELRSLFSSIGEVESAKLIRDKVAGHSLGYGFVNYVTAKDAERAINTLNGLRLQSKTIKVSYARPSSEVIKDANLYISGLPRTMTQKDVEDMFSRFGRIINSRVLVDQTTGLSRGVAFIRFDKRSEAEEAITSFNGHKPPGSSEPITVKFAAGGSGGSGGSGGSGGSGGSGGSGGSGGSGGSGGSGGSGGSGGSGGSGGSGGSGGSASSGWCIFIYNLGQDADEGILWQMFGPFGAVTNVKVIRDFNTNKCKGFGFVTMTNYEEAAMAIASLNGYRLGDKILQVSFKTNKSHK

[6] = molecular target: HuR F279A (human, UniProt Q15717 1-326, F279A); assay: ITC; n=1.0; ITC: 50 mM sodium phosphate pH 7.0, 200 mM NaCl, 2 mM beta-mercaptoethanol, 298 K; NMR: 20 mM sodium phosphate pH 7.0, 200 mM NaCl, 5 mM DTT, 1 mM EDTA, 298 K; settings: protein: recombinant; tags: untagged (tag cleaved)
HuR F279A, sequence (Q15717 whole entry F279A): as the sequence (Q15717 whole entry F247A/Y249A) above, with A247F, A249Y, F279A counted along it

[7] = molecular target: HuR RRM3 F247A/Y249A (human, UniProt Q15717 243-326, F247A;Y249A); assay: ITC; ITC: 50 mM sodium phosphate pH 7.0, 200 mM NaCl, 2 mM beta-mercaptoethanol, 298 K; NMR: 20 mM sodium phosphate pH 7.0, 200 mM NaCl, 5 mM DTT, 1 mM EDTA, 298 K; settings: protein: recombinant; tags: untagged (His6-GST cleaved)
HuR RRM3 F247A/Y249A, sequence (Q15717 243-326 F247A/Y249A): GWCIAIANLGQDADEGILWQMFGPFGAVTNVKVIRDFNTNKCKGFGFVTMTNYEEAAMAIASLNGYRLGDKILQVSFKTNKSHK

[8] = molecular target: HuR RRM3 F279A (human, UniProt Q15717 243-326, F279A); assay: ITC; n=0.6; ITC: 50 mM sodium phosphate pH 7.0, 200 mM NaCl, 2 mM beta-mercaptoethanol, 298 K; NMR: 20 mM sodium phosphate pH 7.0, 200 mM NaCl, 5 mM DTT, 1 mM EDTA, 298 K; settings: protein: recombinant; tags: untagged (His6-GST cleaved)
HuR RRM3 F279A, sequence (Q15717 243-326 F279A): as the sequence (Q15717 243-326 F247A/Y249A) above, with A5F, A7Y, F37A counted along it

[9] = molecular target: T1, HuR RRM3 (human, UniProt Q15717 243-326); assay: ITC; n=0.8; ITC: 50 mM sodium phosphate pH 7.0, 200 mM NaCl, 2 mM beta-mercaptoethanol, 298 K; NMR: 20 mM sodium phosphate pH 7.0, 200 mM NaCl, 5 mM DTT, 1 mM EDTA, 298 K; settings: protein: recombinant; tags: untagged (His6-GST cleaved with TEV)
T1 sequence (Q15717 243-326): as the sequence (Q15717 243-326 F247A/Y249A) above, with A5F, A7Y counted along it

[10] = molecular target: T1, HuR RRM3; assay: ITC; 400 uM RNA into 20 uM RRM3; n=0.6; ITC: 50 mM sodium phosphate pH 7.0, 200 mM NaCl, 2 mM beta-mercaptoethanol, 298 K; NMR: 20 mM sodium phosphate pH 7.0, 200 mM NaCl, 5 mM DTT, 1 mM EDTA, 298 K; settings: protein: recombinant; tags: untagged (His6-GST cleaved with TEV)
[11] = molecular target: T1, HuR RRM3; assay: ITC; n=1.1; ITC: 50 mM sodium phosphate pH 7.0, 200 mM NaCl, 2 mM beta-mercaptoethanol, 298 K; NMR: 20 mM sodium phosphate pH 7.0, 200 mM NaCl, 5 mM DTT, 1 mM EDTA, 298 K; settings: protein: recombinant; tags: untagged (His6-GST cleaved with TEV)
[12] = molecular target: T1, HuR RRM3; assay: ITC; ITC: 50 mM sodium phosphate pH 7.0, 200 mM NaCl, 2 mM beta-mercaptoethanol, 298 K; NMR: 20 mM sodium phosphate pH 7.0, 200 mM NaCl, 5 mM DTT, 1 mM EDTA, 298 K; settings: protein: recombinant; tags: untagged (His6-GST cleaved with TEV)
[13] = molecular target: T1, HuR RRM3; assay: ITC; 400 uM RNA into 20 uM RRM3; ITC: 50 mM sodium phosphate pH 7.0, 200 mM NaCl, 2 mM beta-mercaptoethanol, 298 K; NMR: 20 mM sodium phosphate pH 7.0, 200 mM NaCl, 5 mM DTT, 1 mM EDTA, 298 K; settings: protein: recombinant; tags: untagged (His6-GST cleaved with TEV)
[14] = molecular target: T1, HuR RRM3; assay: NMR; 1:0.25 and 1:1.25; ITC: 50 mM sodium phosphate pH 7.0, 200 mM NaCl, 2 mM beta-mercaptoethanol, 298 K; NMR: 20 mM sodium phosphate pH 7.0, 200 mM NaCl, 5 mM DTT, 1 mM EDTA, 298 K; settings: protein: recombinant; tags: untagged (His6-GST cleaved with TEV)
[15] = molecular target: T1, HuR RRM3; assay: NMR; changes comparable with U6; ITC: 50 mM sodium phosphate pH 7.0, 200 mM NaCl, 2 mM beta-mercaptoethanol, 298 K; NMR: 20 mM sodium phosphate pH 7.0, 200 mM NaCl, 5 mM DTT, 1 mM EDTA, 298 K; settings: protein: recombinant; tags: untagged (His6-GST cleaved with TEV)

HuR WT, sequence (Q15717 whole entry): as the sequence (Q15717 whole entry F247A/Y249A) above, with A247F, A249Y counted along it
HuR F287A/F289A, sequence (Q15717 whole entry F287A/F289A): as the sequence (Q15717 whole entry F247A/Y249A) above, with A247F, A249Y, F287A, F289A counted along it

## AUUUUUAUUUUAUUUUU (ssRNA) [AU17]
[1]
  Kd: 0.04 ± 0.0082 µM
[2]
  Kd: 0.194 ± 0.0215 µM
[3]
  Kd: 0.351 ± 0.0199 µM
[4]
  Kd: 0.041 ± 0.0048 µM
[5]
  Kd: 0.0336 ± 0.0027 µM
[6]
  Kd: 0.0288 ± 0.0044 µM

## UUUUUU (ssRNA) [U6]
[7]
  binding result: no binding
[8]
  Kd: 44.6 ± 3.5 µM
[9]
  Kd: 19.3 ± 0.3 µM
[10]
  Kd: 15.8 ± 1.5 µM

## UUUAUU (ssRNA) [AU6]
[9]
  Kd: 47 ± 3.6 µM

## UUUGUU (ssRNA) [GU6]
[11]
  Kd: 100 ± 18.2 µM

## UAUUUA (ssRNA) [AU6tnf]
[12]
  Kd: 156 ± 32.8 µM

## UUUUU (ssRNA) [U5]
[13]
  Kd: 34 µM

## GAGCAC (ssRNA) [GC control]
[14]
  binding result: no binding

## UUUUUUUUU (ssRNA) [U9]
[15]
  binding result: binds

From paper PMC6344896, “HuR biological function involves RRM3-mediated dimerization and RNA binding by all three RRMs”
